# Tested on: MS2 coat protein
# Test: apparent KD of MS2 coat protein; designed switch direction (-1 OFF switch, 1 ON switch): 1; higher = weaker reporter binding
# How it was run: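 Three titration conditions were used: no input, 200 uM small-molecule ligand, and an oligonucleotide input. In each, SNAP-549-labelled MS2 coat protein was raised from 0.7 or 1.5 nM, doubling, to 3 µM over designed RNA switches transcribed on Illumina chips by stalled E. coli RNA polymerase. Curve fits of normalised cluster fluorescence gave values whose per-design median over clusters is the apparent KD.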
# [1] = input ligand: microRNA oligo, concentration not stated
# [2] = Eterna round: R95, input ligand: FMN 200 uM
# [3] = Eterna round: R95, input ligand: microRNA oligo, concentration not stated
# [4] = Eterna round: R95, input ligand: none
Sequence,apparent KD of MS2 coat protein (input ligand: FMN 200 uM),apparent KD of MS2 coat protein [1],apparent KD of MS2 coat protein (input ligand: none),apparent KD of MS2 coat protein [2],apparent KD of MS2 coat protein [3],apparent KD of MS2 coat protein [4]
"UUUACUUUCAUAGGAUAUCAUGCGAAAAUUGCGUGAGAAGGGUGCACACUGUCUUUCUCGGAGUACAUGAGGAUCACCCAUGUG [SameState NG1 #67] (Eterna round: R96, puzzle: Same State NG 1)",45.6 nM,36.8 nM,44.3 nM,,,
"AGCGUCCACACAGGAUAUCACCUGCACUACAGGUGAGAAGGGUGACCGGUGCGCAAUAACGACAUGAGGAUCACCCAUGUAAAA [Enraquleer] (Eterna round: R96, puzzle: Same State NG 1)",334 nM,93.2 nM,384 nM,,,
"AGCUAUUAAUCAGGAUAUGGUCACAUGAGGAUCACCCAUGUAUAGAUGAUUAAAUGUGGUCUAAACUAGAAGGGAUUGCUAACA [SameState NG2 #56] (Eterna round: R96, puzzle: Same State NG 2)",414 nM,523 nM,421 nM,,,
"GUUACAUGAGGAUCACCCAUGUAUGUGUGGGAGUAAGUGUCUUAGGAUAUCUAUCAUUUGAUUUAAGAGAAGGAAGAUUGUUGU [JMF's solution 94] (Eterna round: R96, puzzle: Same State NG 3)",116 nM,96.1 nM,115 nM,,,
AUAAGUUUGAUGCUCGUCUCUCCGUACGGACAUGAGGAUCACCCAUGUAGUCGGGAAGUAGCCCGGCCAGUAUGGCC [Soveerre] (puzzle: Sensor for hsa-mir-208a),,,,32.6 nM,22.3 nM,22.9 nM
AGUCCAGCCUGAGCUGGACAAAAGCAUGUACAUGAGGAUCACCCAUGUCAUGUACAAGUUUUUUGCUCGUCUUAAAA [Zipper 46 - 11] (puzzle: Sensor for hsa-mir-208a),,,,37.7 nM,13 nM,40.6 nM
AAGUUAAGCUUUUUGUUCUGCCUAUUCUAACAUGAGGAUCACCCAUGUAGUCAGACGACUGCGUGUGUAGUUGAGAU [JR_SHM208A_Sub029] (puzzle: Sensor for hsa-mir-208a),,,,121 nM,194 nM,111 nM
"CCAGCUUCGGCAGGAUAUGGCGCGCCACUACGCCCAGAAGGGCCGGAAGAUACUACAACCACUACAUGAGGAUCACCCAUGUCA [Eternabot solution 1] (Eterna round: R96, puzzle: Same State NG 1)",30.7 nM,5.79 nM,66.8 nM,,,
CCAUGGUAACAUGAGGAUCACCCAUGUACAAGCUUUUUGCUCGUCUUACCCGGCGCGCCCAUUAUGGGCGCGCCGGG [Nishu_Seq3] (puzzle: Sensor for hsa-mir-208a version 2),,,,41.1 nM,45.4 nM,32.5 nM
GUUAUACAUGAGGAUCACCCAUGUCAAUGUAGUCGAGGAUAUGGGUAGCUAUGAGGCGUACUAGAAGGCGAGGAGU [JL-ss1-3.16 ViennaUCT mod] (puzzle: Same State 1),,,,,90.4 nM,
"GUAGCAUACCGAGGAUAUUCAUAUUAUACAUGAGGAUCACCCAUGUUAGGCCGAUUACGGCCUUGGGAGAAGGCGGAAUGCUAC [Xeonanis - 20 Mod20] (Eterna round: R96, puzzle: Same State NG 2)",21.8 nM,53.3 nM,75 nM,,,
"GGUAGGUUACUACCAACACAUGAGGAUCACCCAUGUUUUGGGAAGGAUAUGGUACCUAUUUGGUACCAGAAGGUCCAGUUAAUG [salish99_SSNG3_r04_701] (Eterna round: R96, puzzle: Same State NG 3)",87 nM,161 nM,122 nM,,,
ACGCAGCUGGGUGAGGAUAUCGGUGGUAAAACAUGAGGAUCACCCAUGUCCGAAGCUCGGACUUCCGAGAAGGCGCCCGGCCGCA [Atbeatve] (puzzle: Same State 2),,,,14.6 nM,65.2 nM,83.1 nM
"GUUACAUGAGGAUCACCCAUGUAUGUGUGGGAGUAAGUGUCUUAGGAUAUCUGUUAUGUAAUUUAAGAGAAGGAAGAUUGUUGU [JMF's solution 34] (Eterna round: R96, puzzle: Same State NG 3)",282 nM,300 nM,296 nM,,,
AGUCCAGCGAAAGCUGGACAAAAGCAUGUACAUGAGGAUCACCCAUGUUCAUGUGCAAGCUUUUUGCUCGUCUUAAA [JL mod - D95 - 4] (puzzle: Sensor for hsa-mir-208a),,,,49.2 nM,9.36 nM,58.9 nM
UUAAGCCACGGGCAGGAUAUGUGUUAAAAUACAUGAGGAUCACCCAUGUGCAGGUGUAACACCUGACAGAAGGGCCAAUCGCGGC [Soondi - 2] (puzzle: Same State 2),,,,23.7 nM,43 nM,56.4 nM

Sequence,apparent KD of MS2 coat protein (input ligand: FMN 200 uM),apparent KD of MS2 coat protein [1],apparent KD of MS2 coat protein (input ligand: none),apparent KD of MS2 coat protein [2],apparent KD of MS2 coat protein [3],apparent KD of MS2 coat protein [4]
"UGAUGCCCAUCAGGAUAUGGGCCCAUGAGGAUCACCCAUGUAAAGUAGGUCCAACAGGGCCAAGUCUAGAAGGGAUGGCGGGCA [malcolm 80 ssNG2 F5+F7.1] (Eterna round: R96, puzzle: Same State NG 2)",163 nM,59.1 nM,190 nM,,,
AGAGAGGAAGCUGAGGAUAUCGUAAGGAGGACAUGAGGAUCACCCAUGUGUGUGGAAUUGGAGGACGAGAAGGCAGAGGAGUGGG [JR_SS2_Sub055] (puzzle: Same State 2),,,,33 nM,35.2 nM,34.6 nM
"AUAUGAGAAGCAGGAUAUGUGAAAAAAAAACAUACAGAAGGGUUUAUGGAAAAACAUGAGGAUCACCCAUGUUCUUUGUGAUGA [AK SSNG1-V2-1] (Eterna round: R96, puzzle: Same State NG 1)",,29.6 nM,,,,
"UGUUGUAUUACAGGAUAUCUAGUAUUUUUUUUUAGAGAAGGGUAUUCACAUGAGGAUCACCCAUGUAUAUACGAGGAAGUUGUG [JMF's solution 46] (Eterna round: R96, puzzle: Same State NG 1)",,46.1 nM,,,,
UAGUACAAGCUUUUUGCUUGUCUUAUUUAACAUGAGGAUCACCCAUGUAAGUUGAAAGUUAGAGAGUGCAGGUUGAA [JR_SHM208A_Sub051] (puzzle: Sensor for hsa-mir-208a),,,,16.8 nM,21.9 nM,17.1 nM
GUAAAACAUGAGGAUCACCCAUGUAAUAAUAUGGGAGGAUAUGCGAAUUUAAUUAUUUAAGCAGAAGGCCUAAAUG [Mat - Same State 1 - D99] (puzzle: Same State 1),,,,21.2 nM,172 nM,149 nM
"AGUAAGAGUCAAGGAUAUGCUACCGUUUCGGUAGCAGAAGGUGAUCACAUGAGGAUCACCCAUGUAUAAAUGCGUGAGCGUGCU [JL SSNG1 3.63] (Eterna round: R96, puzzle: Same State NG 1)",679 nM,28.2 nM,59 nM,,,
"AAAGAAAACAUAGGAUAUGUAACAUGAGGAUCACCCAUGUAUACCUCGUAAGAGAUGAUGGAUGGACAGAAGGAUGAUCUCAGG [Default title] (Eterna round: R96, puzzle: Same State NG 2)",,111 nM,,,,
"CGCAUCCUUGUUACAUGAGGAUCACCCAUGUUUUCGAGUGGAGAGGAUAUCGUAACAGUAUUUUUCGAGAAGGCUCUAUAGUAU [JR_SSNG3_Sub081] (Eterna round: R96, puzzle: Same State NG 3)",52.1 nM,39 nM,57.3 nM,,,
"AAUAACAAUUUAGGAUAUCGACAGCGAAACUCACGAGAAGGAGAUAAGAGGCUGGCCUCGCGCACAUGAGGAUCACCCAUGUCG [Eternabot solution 25] (Eterna round: R96, puzzle: Same State NG 1)",38.1 nM,29.8 nM,41.1 nM,,,
"GGCGUAUAAACAUGAGGAUCACCCAUGUUGCGGAGACGCAAUGAGGAUAUCGAUGGGUUUCCCGUCGAGAAGGCGUGGGUCGCC [JL SSNG3 3.95] (Eterna round: R96, puzzle: Same State NG 3)",22.3 nM,24.6 nM,40.2 nM,,,
"AUUAUUUAUGCAGGAUAUGAUUAACAUGAGGAUCACCCAUGUGGUGUUGUGAGUAAGGAGAGUGAUCAGAAGGGCAUUUUUUUU [JMF's solution 22] (Eterna round: R96, puzzle: Same State NG 2)",673 nM,377 nM,447 nM,,,
"GAGCCAGUCCGAGGAUAUUCAUAAUUAAAUACAUGAGGAUCACCCAUGUAGGCAAGAGAGCCUUGGGAGAAGGCGGACUGGCUC [Xeonanisa>>2] (Eterna round: R96, puzzle: Same State NG 2)",12.8 nM,25 nM,42.9 nM,,,
GAAAGAGGAAGCGAGGAUAUCGUGAAGAGUACAUGAGGAUCACCCAUGUUGUAGGUAAAGGUAGGCGAGAAGGCGCAGGAGAAGA [JR_SS2_Sub0102] (puzzle: Same State 2),,,,23.9 nM,23.7 nM,33.2 nM
"UUGAUAUGCGCAGGAUAUGGUGAGGAUCACCCACUAGAAGGGUGCACAUGAGAAUCGAACAUGAGGAUCACCCAUGUUCUGAGC (Eterna round: R96, puzzle: Same State NG 1)",831 nM,295 nM,1030 nM,,,
AACAAUCUAUCUGAGGAUAUCAUGAAAUAAACAUGAGGAUCACCCAUGUGCAGGAAAACUGCAUAUGAGAAGGCAGAUAGAUUUA [salish99_ss2_r3_057] (puzzle: Same State 2),,,,43.8 nM,638 nM,1000 nM

# Source: the supplement of paper PMC9170038
